From US9505823 come the findings set out here.

In this experiment the target is IGF-I receptor (on L6 cells) (UniProt P24062). Put plainly: cell-based or functional assay.
Sequence of UniProt P24062 (P24062 31-1370 limits assumed): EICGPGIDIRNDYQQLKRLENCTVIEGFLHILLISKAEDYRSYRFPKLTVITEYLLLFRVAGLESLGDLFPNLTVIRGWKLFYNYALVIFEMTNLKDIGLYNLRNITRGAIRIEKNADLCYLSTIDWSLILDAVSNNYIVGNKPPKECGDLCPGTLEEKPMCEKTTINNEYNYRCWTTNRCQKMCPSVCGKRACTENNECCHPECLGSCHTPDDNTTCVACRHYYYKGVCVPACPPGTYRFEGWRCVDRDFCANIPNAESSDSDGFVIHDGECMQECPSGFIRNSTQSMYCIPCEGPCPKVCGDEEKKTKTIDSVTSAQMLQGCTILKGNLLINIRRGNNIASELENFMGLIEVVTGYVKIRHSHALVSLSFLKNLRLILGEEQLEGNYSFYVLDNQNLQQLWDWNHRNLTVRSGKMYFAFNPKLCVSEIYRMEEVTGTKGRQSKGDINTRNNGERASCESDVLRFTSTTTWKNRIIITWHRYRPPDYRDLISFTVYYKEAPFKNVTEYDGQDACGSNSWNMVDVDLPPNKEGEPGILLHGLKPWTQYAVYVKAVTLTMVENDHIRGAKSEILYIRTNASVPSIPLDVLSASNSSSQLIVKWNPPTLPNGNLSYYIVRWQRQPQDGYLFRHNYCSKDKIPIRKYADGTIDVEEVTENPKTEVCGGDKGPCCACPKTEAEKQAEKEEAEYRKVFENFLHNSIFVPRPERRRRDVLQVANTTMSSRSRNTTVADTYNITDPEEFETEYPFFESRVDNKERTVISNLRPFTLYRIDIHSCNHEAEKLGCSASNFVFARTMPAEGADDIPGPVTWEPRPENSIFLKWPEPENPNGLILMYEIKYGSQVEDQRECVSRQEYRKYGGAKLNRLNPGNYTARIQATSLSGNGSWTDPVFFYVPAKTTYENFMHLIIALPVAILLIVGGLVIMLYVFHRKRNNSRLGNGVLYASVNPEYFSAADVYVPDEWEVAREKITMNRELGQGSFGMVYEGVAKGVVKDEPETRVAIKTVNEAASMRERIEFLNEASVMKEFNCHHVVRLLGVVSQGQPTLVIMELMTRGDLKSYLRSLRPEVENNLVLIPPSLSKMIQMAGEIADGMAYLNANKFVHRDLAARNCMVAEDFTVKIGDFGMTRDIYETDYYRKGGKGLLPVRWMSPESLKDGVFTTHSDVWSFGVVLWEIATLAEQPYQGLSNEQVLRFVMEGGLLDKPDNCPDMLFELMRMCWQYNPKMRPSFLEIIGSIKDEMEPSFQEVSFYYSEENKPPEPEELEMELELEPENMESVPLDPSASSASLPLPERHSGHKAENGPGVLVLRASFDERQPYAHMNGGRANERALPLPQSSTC

Levemir (ligand) yielded an EC50 of mitogenic activity, L6 cells of 14.8 nM and a Percent mitogenic activity, L6 cells (insulin = 100) of 24.7 percent.

On to Glargine (Lantus, Aventis) (ligand), for which the EC50 of L6 cell proliferation (CellTiter-Glo, 2 days) amounted to 0.9 nM; the EC50 of mitogenic activity, L6 cells worked out at 4.73 nM; the Percent mitogenic activity, L6 cells (insulin = 100) was 77 percent.

Turning to “IGF-I (from UniProt P05019 49-118) (ligand)”, the EC50 of L6 cell proliferation (CellTiter-Glo, 2 days) is 0.04 nM; the EC50 of mitogenic activity, L6 cells is 0.07 nM; the Percent mitogenic activity, L6 cells (insulin = 100) was found to be 5230 percent.
